Results: paper PMC9364107

Target: SF3B1 residues 147–462 (ULM-containing N-terminal region) (human) (UniProt O75533)
Assay: ITC

SF3B1 residues 147–462 (ULM-containing N-terminal region) (human), sequence (O75533 147-462): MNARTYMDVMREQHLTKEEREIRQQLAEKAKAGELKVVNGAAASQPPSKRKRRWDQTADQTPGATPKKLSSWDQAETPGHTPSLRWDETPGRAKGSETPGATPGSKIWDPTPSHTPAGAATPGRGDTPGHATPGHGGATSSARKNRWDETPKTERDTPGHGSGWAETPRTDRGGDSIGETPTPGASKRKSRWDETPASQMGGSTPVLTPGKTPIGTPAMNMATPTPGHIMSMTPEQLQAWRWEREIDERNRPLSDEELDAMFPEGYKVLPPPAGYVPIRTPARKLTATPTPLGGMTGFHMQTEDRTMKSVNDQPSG

U2AF2^12UL (nearly full-length U2AF2, residues 141–471) (domain or fragment)
stoichiometry N: 2
